According to the nanobody polyreactivity screen of Harvey et al. (2022):

Assay: yeast display, Sf9 membrane polyspecificity reagent, FACS + sequencing; frameworks hold sequencing errors
Outline: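 Galactose-induced (36–48 hours) yeast carrying a synthetic nanobody display library were exposed to 10% biotinylated, detergent-solubilized Sf9 membrane reagent at 4 °C for 1 hour. FACS followed streptavidin microbead enrichment, using low and high (top ~1%) gates for expression (anti-HA) and reagent binding (streptavidin). Colony PCR, MiSeq 2 × 250 sequencing and CDR-length filtering followed. Labels for polyreactivity reflect the gate of origin.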
With “QVQLVESGGGLVQEGGSLRLSCAASGITFTSYTMGWYRQAPGKERELVAAISSGGSTYYADSVKGRFTISRDNAKNTVYLQMNSLKPEDTAVYYCAAISYVFRMYYWGQGTQVTVSS” the “polyreactivity (PSR sort gate)” value was “high polyreactivity”. For “QVQLVESGGGLVQEGGSLRLSCAASGLIFPSYARGWYRPAPGKERELVAGINTGGSTNYADSVKGRFTISRDNAKNTVSLQMNSQKPEDTAVYYCAKDNNYYWYVSPRDYWGLGTQVTVSS”, the “polyreactivity (PSR sort gate)” value was “low polyreactivity”. With “QVQLVESGGGLVQEGGSLRLSCAASGLTFYYYAMGWYRPAPGKERELVAAISRSGGSTYYADSVKGRFTISRDNAKITVYLQMNSLIPEDTAVYYCASRDHAGYYKYDYWGQGTQVTVSS” the “polyreactivity (PSR sort gate)” value was “high polyreactivity”. With “QVQLVESGGGLVQEGGSLRLSCAASGNIFTTYAMGWYRQAPGKERELVAAISRSGGRTNYADSVKGRFTISRDNAKNTVYLQMNSLKPEDTAVYYCNRALKPVDSYAYGYWGQGTQVTVSS” the “polyreactivity (PSR sort gate)” value was “high polyreactivity”. For “QVQLVESGGGLVQEGGSLRLSCAASGNMLGTYAMGWYILAPGIEREFVAAISSSVGSTYYADSVKGRFTISRDNAKNSVYLQMNILKPEDTAVYYCAARKYQIYEKWGYLYDYWGQGTQVTVSS”, the “polyreactivity (PSR sort gate)” value was “low polyreactivity”. In the case of “QVQLVESGGGLVQEGGSLRLSCAASGRIFRVYTMGWYRQAPGKERELVASITGRGGSTYYADSVKGRFTISRDNAKNTVYLQMNSLKPEDTAVYYCAAQTFRGFSEFDYWGQGTQVTLSS”, the “polyreactivity (PSR sort gate)” value is reported as “high polyreactivity”. For “QVQLVESGGGLVQEGGSLRLSCAASGRIFYNYPMGWYRQAPGKEREFVAAISGSGGSTYYADSVKGRFTISRDIAKNTVYLQMKSLKPEDTAVYYCSTSGPQYYSRNFDYWGQGTQVTVSS”, the “polyreactivity (PSR sort gate)” value was “low polyreactivity”. With “QVQLVESGGGLVQEGGSLRLSCAASGRIIPSYAMGWYRQAPGKERELVAAISYSGASTYYADSVKGRFTISRDNAKNTVYLLMNCLKPEDTAVYYCATDHDSVRVLVSSTSDYDYWGQGTQVTVSS” the “polyreactivity (PSR sort gate)” value was “low polyreactivity”. With “QVQLVESGGGLVQEGGSLRLSCAASGRISTYYTMGWYRQAPGKERELVAAISWSGTSTYYADSVKGRFTISRDNAKNTVYLQMNSLKPEDTAVYYCNARWRYPLDSVTDDYWGQGTQVTVSS” the “polyreactivity (PSR sort gate)” value was “high polyreactivity”. For “QVQLVESGGGLVQEGGSLRLSCAASGRPFYNAMGWYRPAPGKERELVAGIRWSGASTYYADSVKGRFTISRDNAKNTVYLQMNSLKPEDTAVYYCAARRHSTRLRLTSDYWGHGTQVTVSS”, the “polyreactivity (PSR sort gate)” value was “high polyreactivity”. In the case of “QVQLVESGGGLVQEGGSLRLSCAASGRTFGYYAMGWYRQAPGKERELVAAITRNGGRTYYADSVKGRFTISRDNAKNTVYLQMNSLKPEDTAVYYCAKDQYKPEAFYYWGQGTQVTVSS”, the “polyreactivity (PSR sort gate)” value is reported as “high polyreactivity”. For “QVQLVESGGGLVQEGGSLRLSCAASGRTFPYTVMGWYRQAPGKERELVAGITGSGDSTFYADSVKGRFTISRDNAKNTVYIQMNSLKPEDTAVYYCAARYRTLNDGYIRIYWGQGTQVTVSS”, the “polyreactivity (PSR sort gate)” value was “low polyreactivity”. For “QVQLVESGGGLVQEGGSLRLSCAASGRTFVSNAMGWYRQAPGKERELVAAIRYGGGRTYYADSVKGRFTISRDNAKNTVYLQMNSLKPEVTAVFYCAKRSVGGTGYYWGQGTQVTVSS”, the “polyreactivity (PSR sort gate)” value was “high polyreactivity”. With “QVQLVESGGGLVQEGGSLRLSCAASGSIFPLYDMGWYRQAPGKERELVAGISSGGSTNYADSVKGRFTISRDNAKNTVYLQMTSLKPEDTAVYYCAATGSSRYGYWGQGTQVTVSS” the “polyreactivity (PSR sort gate)” value was “low polyreactivity”. With “QVQLVESGGGLVQEGGSLRLSCAASGSIFTLYFMGWYRQAPGKERELVAAITWSGGSTYYADSVKGRFTISRDNAKNTVYLQMNSLKTEVTAVYYCNADVRWDSQDYYYWGQGTQVTVSS” the “polyreactivity (PSR sort gate)” value was “low polyreactivity”. With “QVQLVESGGGLVQEGGSLRLSCAASGSTFFTYAMGWYRQAPGKERELVAAISSSGGSTYYADSVKGRFTISRDNAKNTVYLQMNSLIPEDTAVDYCNAKLYLPYDPTDEYDYWGQGTQVTVSS” the “polyreactivity (PSR sort gate)” value was “low polyreactivity”. For “QVQLVESGGGLVQEGGSLRLSCAASGSTFLTYAMGWYRQAPGKERELVAGITRSGASTYYADSVKGRFTISRDNAKNTVYLQMNSLKTEDTAVYYCAATYISHFHRYYYWGQGTQVTVSS”, the “polyreactivity (PSR sort gate)” value was “high polyreactivity”. With “QVQLVESGGGLVQEGGSLRLSCAASGSTFRFYAMGWYRQAPGKERELVAVISFNDGSTYYADSVTGRFTISRDNAKNTVYLQMNSLKPEDSAVYSCATDELDSWWNEYEYWGQGTQVTVSS” the “polyreactivity (PSR sort gate)” value was “low polyreactivity”. For “QVQLVESGGGLVQEGGSLRLSCAASGSTFSRYAMGWYRQAPGKERELVAAISSRGGSTYYADSVKGRFTISRDNAKNNVYLQMNSLKPEDTAVYYCNALTSYQNHVYPYDYWGQGTQVTVSS”, the “polyreactivity (PSR sort gate)” value was “high polyreactivity”. With “QVQLVESGGGLVQEGGSLRLSCAASGSTFWVYVMGWYRPAAGKERELVAGISSRGGNTYYADSVKGRFTISRDKAKNSVYLQMNSLKPEDTAVYYCNAPYGGDYESARDYWGQGTQVTVSS” the “polyreactivity (PSR sort gate)” value was “low polyreactivity”. With “QVQLVESGGGLVQEGGSLRLSCAASGSTFYPNAMGWYRQAPGKERELVAAISSSGGSTYYADSVKGRFTISRDNAKNTVYLQMNSLKPEDTAVYYCNKRWFRDYDYWGPGTQVTVSS” the “polyreactivity (PSR sort gate)” value was “high polyreactivity”. With “QVQLVESGGGLVQEGGSLRLSCAASGSTFYWYAMGWYRQAPGKERELVATISNTGRTYYADSVKGRFTISRDNAKNTVYLQMNSLKPEDTAVYDCAAKRSQRWRYDYWGQGTQVTVSS” the “polyreactivity (PSR sort gate)” value was “high polyreactivity”. In the case of “QVQLVESGGGLVQEGGSLRLSCAASGSTSQYNDMGWYRQAPGKERELVAAITNCGSTNYADSVKGRFTISRDNAKNTVYLQMNSLKPEDTAVYSCNADYGQERPGYGYGYWGQGTQVTVSS”, the “polyreactivity (PSR sort gate)” value is reported as “low polyreactivity”. For “QVQLVESGGGLVQEGGSLRLSCASSGITFYSNAMGWYRQAPGKERELVATITRGGSTYYADSVKGRFTISRDNAKTTVYLHMNSLKPEDTAVYYCAADYSYRGREYGYWGQGTQVTVSS”, the “polyreactivity (PSR sort gate)” value was “low polyreactivity”. With “QVQLVESGGGLVQGGGSLRLSCAASGIIFFNNVMGWYRLAPGKERELVAAITFSGSSTYYADSVKGRFTISRDNAKNTVYLQMNSLKTEDTAVYYCAAYRSGHGIIDYDSWGQGTQVTVSS” the “polyreactivity (PSR sort gate)” value was “low polyreactivity”. For “QVQLVESGGGLVQGGGSLRLSCAASGINFRSYAMGRYRQAPGKERALVAAISWSGGSTYYADSVKGRFTISRDNAKNTVYLQMNSLKPDDTAVYYCAAKVRFSYGRGYDYWGQGTQVTVSS”, the “polyreactivity (PSR sort gate)” value was “high polyreactivity”. In the case of “QVQLVESGGGLVQGGGSLRLSCAASGRIFLRNAMGSYRQAPGKERELVATITSRGCSTYYADSVKGRFTISRDNAKNTVYLQMNSLKPEDTAVYYCAAYPEYVSGAWYDYWGQGTQVNVSS”, the “polyreactivity (PSR sort gate)” value is reported as “low polyreactivity”. With “QVQLVESGGGLVQGGGSLRLSCAASGRILYSYAMGWYRQAPGKERELVAAISWRGGPTYYADSVKGRFTISRDNAKNTVYLQLNSLKPEDTAVSNCAPEFYDHPWMYDYWGQGTQVTVSS” the “polyreactivity (PSR sort gate)” value was “low polyreactivity”. For “QVQLVESGGGLVQGGGSLRLSCAASGSNLQINAMGWYRQAPGKERELVAANDWGGGDTYYADSVKGRFTISRDNAKNTVYVQMISLKPEDTAVYYCAAEGVTWYLWDFYDIYGYWGQGTQVNVSS”, the “polyreactivity (PSR sort gate)” value was “high polyreactivity”. With “QVQLVESGGGLVQGGGSLRLSCADSGRTSDGYPMRWYRQATGKERELVAVITEGGGDTYYADSVKGRFTISRDHSKNTVYLKMNSLKPEDSAVYYCNAVEGSRLTYDYWGQGTQVTVSS” the “polyreactivity (PSR sort gate)” value was “low polyreactivity”. In the case of “QVQLVESGGGLVQPGGSLRISCAASGSTFEYYAMGWYRQAPGKERELVAAITGSGGSTNYADSVKGRFTISRDNAKNTVYLQMNSLKPEDTAVYYCAADVYDAGVRYDYWGQGTQVTVSS”, the “polyreactivity (PSR sort gate)” value is reported as “high polyreactivity”. With “QVQLVESGGGLVQPGGSLRLSCAASGFTFYTYAMGWYRQAPGKERELVATISSGGRTNYADSVKGRFTISRDNAKNTVYLQKNSLKPEDTAVYYCNIRLRGGAVRFDSWGQGTQVTVSS” the “polyreactivity (PSR sort gate)” value was “low polyreactivity”. With “QVQLVESGGGLVQPGGSLRLSCAASGRIFYRYAMGWYRQAPGKERELVAAITARGGSTYYADSVKGRFTISRDNAKNTVYLQMNCLKPEDTAVYYCNKLLSNPYYPSYDYWGQGTQVTVSS” the “polyreactivity (PSR sort gate)” value was “high polyreactivity”. With “QVQLVESGGGLVQPGGSLRLSCAASGRSFFGYPMGWYRQAPGKERELVATISGSGASTYYADSVKGRFTISRDNAKNTVYLQMNSLKPEDTAVYYFAARYVTNRHSRYYYWGQGTQVTVSS” the “polyreactivity (PSR sort gate)” value was “high polyreactivity”. In the case of “QVQLVESGGGLVQPGGSLRLSCAASGRTLHYNVMGWYRQAPGKEREFVAAITKSGGITYYADSVKGRFTISRDNAKNTVYLQMNSLKPEETAVDYCAADSPSWSWRISWSRYDYWGQGTQVTVSS”, the “polyreactivity (PSR sort gate)” value is reported as “low polyreactivity”. In the case of “QVQLVESGGGLVQPGGSLRLSCAASGSIFAWYVMGWYRQAPGKERELVAGIDTSGGTTFYADSVKGRFTISRDNAKNTVYVQMNSLKPEDTAVYYCAADTWYRGPWEFDYWGQGTQVTVSS”, the “polyreactivity (PSR sort gate)” value is reported as “low polyreactivity”. With “QVQLVESGGGLVQPGGSLRLSCAASGYTSSPYAMGWYRQAPGKERELVAGISSGGSTYADSVKGRFTISRDNAKNTVYLQMISLKPEDTAVYYCADVWYYWTFEFDYWGQGTQVTVSS” the “polyreactivity (PSR sort gate)” value was “high polyreactivity”. For “QVQLVESGGGLVQPGGSLRLSCSASGRIFDNYAMGWYRQAPGKEREFVARITSSGGSTYYADSVKGRFTISRDYAKNTVYLQMYSLKPEDTAVYYCAKRGWSSYCRYDSWGQGTQVTVSS”, the “polyreactivity (PSR sort gate)” value was “high polyreactivity”. In the case of “QVQLVESGGGLVQPGGSLRLSSAASGITFPDYAMGWYRKAPGKERELVATITSSGGRTYYAHSVKGRFTISRDNAKNTVYLQMKSLKTEDTAVYYCAARRAYIRTLYYWGQGTQVTVSS”, the “polyreactivity (PSR sort gate)” value is reported as “high polyreactivity”. With “QVQLVESGGGLVQPGGSLRLSWAASGSIFVGYAMGWYRQAPGKERELVAAISTRGGSTYYADSVKGRFTISRDNAKNTVYLQINSLKPEDTAVYYCAADYLDSTYGYVFGWDDYWGQGTLVTVSS” the “polyreactivity (PSR sort gate)” value was “low polyreactivity”. In the case of “QVQLVESGGGLVQPGGSLSLSCAASGFTFTYYAMGWYRQAPGKEMELVAAISWSGDSTYYADSVKGRFTISRDNAKNNVYLQMNSLKPEDSAVYYCGSEYSHTYDYWGQGTLVTVSS”, the “polyreactivity (PSR sort gate)” value is reported as “low polyreactivity”.
